According to patent US20100173362A1 (published 2010):
Where a chain is given by its changes, count along the chain named.

B1: 2B8 (antibody, mouse IgG1, kappa)
heavy: QVQLQQPGAELVKPGTSVKLSCKASGYTFTTYWMHWVNQRPGQGLEWIGEINPTNGHTNYNEKFKSKATLTVDKSSSTAYMQLSSLTSEDSAVYYCARNYVGSIFDYWGQGTTLTVSSAKTTPPSVYPLAPGSAAQTNSMVTLGCLVKGYFPEPVTVTWNSGSLSSGVHTFPAVLQSDLYTLSSSVTVPSSTWPSETVTCNVAHPASSTKVDKKIVPRDCGCKPCICTVPEVSSVFIFPPKPKDVLTITLTPKVTCVVVDISKDDPEVQFSWFVDDVEVHTAQTQPREEQFNSTFRSVSELPIMHQDWLNGKEFKCRVNSAAFPAPIEKTISKTKGRPKAPQVYTIPPPKEQMAKDKVSLTCMITDFFPEDITVEWQWNGQPAENYKNTQPIMDTDGSYFVYSKLNVQKSNWEAGNTFTCSVLHEGLHNHHTEKSLSHSPGK
light: NIVMTQSPKSMSMSVGERVTLSCKASENVVSYVSWYQQKPAQSPKLLIYGASNRNTGVPDRFTGSGSATDFTLTISSVRAEDLADYHCGQSYNYPYTFGGGTRLEIKRADAAPTVSIFPPSSEQLTSGGASVVCFLNNFYPKDINVKWKIDGSERQNGVLNSWTDQDSKDSTYSMSSTLTLTKDEYERHNSYTCEATHKTSTSPIVKSFNRNEC
notes: also called murine 2B8; mouse 2B8
B2: sh2B8-9 (G1m(3)) (antibody, human IgG1, kappa)
heavy: not shown
light: DIQMTQSPSSLSASVGDRVTITCKASENVVSYVSWYQQKPGKAPKLLIYGASNRNTGVPSRFSGSGSGTDFTLTISSLQPEDFATYYCGQSYNYPYTFGQGTKLEIKRTVAAPSVFIFPPSDEQLKSGTASVVCLLNNFYPREAKVQWKVDNALQSGNSQESVTEQDSKDSTYSLSSTLTLSKADYEKHKVYACEVTHQGLSSPVTKSFNRGEC
notes: superhumanized 2B8, human IgG1 G1m(3) allotype (allele 2), kappa Km(3) (allele 2), made in 293T cells
B3: HE2B8-1 (antibody, human IgG1, kappa, V domains shown)
VH: QVQLVQPGAEVVKPGTSVKLSCKASGYTFTTYWMHWVNQAPGQGLEWIGEINPTNGHTNYNEKFKGKATLTVDKSTSTAYMELSSLRSEDTAVYYCARNYVGSIFDYWGQGTLLTVSS
VL: DIVMTQSPDSMAMSVGERVTLNCKASENVVSYVSWYQQKPGQSPKLLIYGASNRNTGVPDRFSGSGSATDFTLTISSVQAEDVADYHCGQSYNYPYTFGQGTKLEIKR
B4: HE2B8-2 (antibody, human IgG1, kappa, V domains shown)
VH: B3 VH
VL: B3 VL with M11L, V15L, N55E, T56S
B5: HE2B8-4 (antibody, human IgG1, kappa, V domains shown)
VH: B3 VH with V12K, N38R, E62Q, K65Q, K67R
VL: B3 VL with M11L, V15L, N55E, T56S
B6: HE2B8-3 (antibody, human IgG1, kappa, V domains shown)
VH: B3 VH with V12K, N38R, E62Q, K65Q, K67R
VL: B3 VL

Key:
[1] = biological target: T1, recombinant human HGF (R&D Systems, Catalog No. 294-HGN-025) (human, UniProt P14210 32-728); test: cell-based or functional assay
T1 sequence (P14210 32-728 limits assumed): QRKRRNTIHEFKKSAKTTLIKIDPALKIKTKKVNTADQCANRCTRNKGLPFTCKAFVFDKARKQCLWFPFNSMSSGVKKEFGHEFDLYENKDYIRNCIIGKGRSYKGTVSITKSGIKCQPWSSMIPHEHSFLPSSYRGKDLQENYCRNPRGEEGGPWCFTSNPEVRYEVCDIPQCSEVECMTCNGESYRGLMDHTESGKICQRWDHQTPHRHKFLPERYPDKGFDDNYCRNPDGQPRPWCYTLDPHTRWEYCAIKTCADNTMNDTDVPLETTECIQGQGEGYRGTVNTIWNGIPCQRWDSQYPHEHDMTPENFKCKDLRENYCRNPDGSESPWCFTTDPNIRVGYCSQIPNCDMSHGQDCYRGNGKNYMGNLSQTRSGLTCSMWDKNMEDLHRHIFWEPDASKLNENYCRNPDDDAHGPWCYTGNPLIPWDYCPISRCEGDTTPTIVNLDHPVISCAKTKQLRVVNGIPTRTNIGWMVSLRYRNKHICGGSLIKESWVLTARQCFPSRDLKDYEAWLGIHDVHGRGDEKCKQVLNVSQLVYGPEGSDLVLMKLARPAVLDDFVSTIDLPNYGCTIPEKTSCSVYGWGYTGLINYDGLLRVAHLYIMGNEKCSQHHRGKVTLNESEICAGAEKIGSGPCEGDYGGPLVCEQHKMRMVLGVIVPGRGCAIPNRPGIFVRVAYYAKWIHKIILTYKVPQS

[2] = biological target: T1, recombinant human HGF (R&D Systems, …); test: SPR (BIAcore), KD at 25 C against KD at 37 C; upper end fits 2B8 in Table 19
Protocol: (§1) The antibodies were captured in an individual flow cell at a flow rate of 10 μL/min. Injection time was variable for each antibody to yield approximately 20 RU of antibody captured for each cycle. […] The dissociation phase was monitored for 15 or 90 minutes, depending on concentration. The surface of mouse anti-human immunoglobulins sensor chips was then regenerated with 10 mM Glycine-HCl, pH 2.2 (BIAcore, Catalog No. BR-1003-54) injected for 3 minutes at a flow rate of 60 μL/min before another cycle was initiated. The surface of rabbit anti-mouse immunoglobulins sensor chips was regenerated with 10 mM Glycine-HCl, pH 1.7 (BIAcore, Catalog No. BR-1003-54) injected for 3 minutes at a flow rate of 60 μL/min before another cycle was initiated.

[3] = biological target: T1, recombinant human HGF (R&D Systems, …); test: SPR (BIAcore), KD at 25 C against KD at 37 C; lower end fits sh2B8-9 in Table 19
Protocol: as §1

HGF-stimulated c-Met phosphorylation in PC-3 cells, Average of Two Trials [1] | fold smaller KD at 37° C. than at 25° C. [2] | fold smaller KD at 37° C. than at 25° C. [3] | Binder
0.91 nM | 1.4 to 3 fold |  | B1
0.93 nM |  | 1.4 to 3 fold | B2
0.8 nM |  |  | B3
0.88 nM |  |  | B4
0.75 nM |  |  | B5
0.79 nM |  |  | B6
